Assay results as given in paper PMC11208452.

Molecular target: T1, BMAL2 (recombinant human, Novus H00056938-Q01) (Homo sapiens) (UniProt Q8WYA1)
T1 sequence (Q8WYA1 whole entry, looked up): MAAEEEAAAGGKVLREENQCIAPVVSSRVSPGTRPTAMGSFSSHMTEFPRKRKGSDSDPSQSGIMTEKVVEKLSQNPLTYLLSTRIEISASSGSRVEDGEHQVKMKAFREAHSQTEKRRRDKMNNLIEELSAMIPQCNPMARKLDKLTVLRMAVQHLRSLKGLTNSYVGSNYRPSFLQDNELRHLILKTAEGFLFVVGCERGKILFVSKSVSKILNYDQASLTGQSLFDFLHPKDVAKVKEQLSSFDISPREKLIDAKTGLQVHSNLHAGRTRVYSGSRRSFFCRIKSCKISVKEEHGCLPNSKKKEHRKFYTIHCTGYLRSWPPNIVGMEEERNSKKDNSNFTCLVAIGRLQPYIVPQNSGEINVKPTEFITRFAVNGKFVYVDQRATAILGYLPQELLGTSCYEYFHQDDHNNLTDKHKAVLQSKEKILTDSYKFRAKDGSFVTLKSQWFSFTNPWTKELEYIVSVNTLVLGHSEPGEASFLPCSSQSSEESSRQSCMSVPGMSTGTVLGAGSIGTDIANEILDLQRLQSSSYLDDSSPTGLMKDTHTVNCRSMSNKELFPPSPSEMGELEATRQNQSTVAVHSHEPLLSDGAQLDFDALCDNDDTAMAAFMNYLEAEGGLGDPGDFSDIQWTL
Assay: SPR
Conditions: BMAL2 immobilized; oligo analyte 50, 100, 200 nM; global 1:1 fit; OpenSPR (text also says BIAcore), 20 C, 30 ul/min; running buffer, salt and pH not stated (immobilization in 10 mM sodium acetate pH 5.5)

## GGCGCAACGCTGAGCAGCT (double strand) [human PD-L1 promoter predicted BMAL2 binding site oligo]
  Kd: 209 nM
